B1: Isoform Long of Autophagy protein 5 (Homo sapiens), Q9H1Y0-1 (parent)
chain: MTDDKDVLRDVWFGRIPTCFTLYQDEITEREAEPYYLLLPRVSYLTLVTDKVKKHFQKVMRQEDISEIWFEYEGTPLKWHYPIGLLFDLLASSSALPWNITVHFKSFPEKDLLHCPSKDAIEAHFMSCMKEADALKHKSQVINEMQKKDHKQLWMGLQNDRFDQFWAINRKLMEYPAEENGFRYIPFRIYQTTTERPFIQKLFRPVAADGQLHTLGDLLKEVCPSAIDPEDGEKKNQVMIHGIEPMLETPLQWLSEHLSYPDNFLHISIIPQPTD
partner: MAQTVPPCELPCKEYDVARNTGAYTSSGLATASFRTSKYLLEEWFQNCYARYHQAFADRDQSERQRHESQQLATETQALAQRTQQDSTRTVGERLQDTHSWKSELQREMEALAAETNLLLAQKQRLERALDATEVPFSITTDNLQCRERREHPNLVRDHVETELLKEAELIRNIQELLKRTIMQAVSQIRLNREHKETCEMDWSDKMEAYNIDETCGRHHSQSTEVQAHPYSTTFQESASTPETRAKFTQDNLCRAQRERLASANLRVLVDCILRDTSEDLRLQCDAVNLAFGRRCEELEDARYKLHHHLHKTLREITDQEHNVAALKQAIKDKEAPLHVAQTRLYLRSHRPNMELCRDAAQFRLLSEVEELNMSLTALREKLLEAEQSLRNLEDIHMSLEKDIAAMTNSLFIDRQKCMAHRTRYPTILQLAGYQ
B2: DNA topoisomerase 3-beta-1 (Homo sapiens), O95985 (parent)
chain: MKTVLMVAEKPSLAQSIAKILSRGSLSSHKGLNGACSVHEYTGTFAGQPVRFKMTSVCGHVMTLDFLGKYNKWDKVDPAELFSQAPTEKKEANPKLNMVKFLQVEGRGCDYIVLWLDCDKEGENICFEVLDAVLPVMNKAHGGEKTVFRARFSSITDTDICNAMACLGEPDHNEALSVDARQELDLRIGCAFTRFQTKYFQGKYGDLDSSLISFGPCQTPTLGFCVERHDKIQSFKPETYWVLQAKVNTDKDRSLLLDWDRVRVFDREIAQMFLNMTKLEKEAQVEATSRKEKAKQRPLALNTVEMLRVASSSLGMGPQHAMQTAERLYTQGYISYPRTETTHYPENFDLKGSLRQQANHPYWADTVKRLLAEGINRPRKGHDAGDHPPITPMKSATEAELGGDAWRLYEYITRHFIATVSHDCKYLQSTISFRIGPELFTCSGKTVLSPGFTEVMPWQSVPLEESLPTCQRGDAFPVGEVKMLEKQTNPPDYLTEAELITLMEKHGIGTDASIPVHINNICQRNYVTVESGRRLKPTNLGIVLVHGYYKIDAELVLPTIRSAVEKQLNLIAQGKADYRQVLGHTLDVFKRKFHYFVDSIAGMDELMEVSFSPLAATGKPLSRCGKCHRFMKYIQAKPSRLHCSHCDETYTLPQNGTIKLYKELRCPLDDFELVLWSSGSRGKSYPLCPYCYNHPPFRDMKKGMGCNECTHPSCQHSLSMLGIGQCVECESGVLVLDPTSGPKWKVACNKCNVVAHCFENAHRVRVSADTCSVCEAALLDVDFNKAKSPLPGDETQHMGCVFCDPVFQELVELKHAASCHPMHRGGPGRRQGRGRGRARRPPGKPNPRRPKDKMSALAAYFV
partner: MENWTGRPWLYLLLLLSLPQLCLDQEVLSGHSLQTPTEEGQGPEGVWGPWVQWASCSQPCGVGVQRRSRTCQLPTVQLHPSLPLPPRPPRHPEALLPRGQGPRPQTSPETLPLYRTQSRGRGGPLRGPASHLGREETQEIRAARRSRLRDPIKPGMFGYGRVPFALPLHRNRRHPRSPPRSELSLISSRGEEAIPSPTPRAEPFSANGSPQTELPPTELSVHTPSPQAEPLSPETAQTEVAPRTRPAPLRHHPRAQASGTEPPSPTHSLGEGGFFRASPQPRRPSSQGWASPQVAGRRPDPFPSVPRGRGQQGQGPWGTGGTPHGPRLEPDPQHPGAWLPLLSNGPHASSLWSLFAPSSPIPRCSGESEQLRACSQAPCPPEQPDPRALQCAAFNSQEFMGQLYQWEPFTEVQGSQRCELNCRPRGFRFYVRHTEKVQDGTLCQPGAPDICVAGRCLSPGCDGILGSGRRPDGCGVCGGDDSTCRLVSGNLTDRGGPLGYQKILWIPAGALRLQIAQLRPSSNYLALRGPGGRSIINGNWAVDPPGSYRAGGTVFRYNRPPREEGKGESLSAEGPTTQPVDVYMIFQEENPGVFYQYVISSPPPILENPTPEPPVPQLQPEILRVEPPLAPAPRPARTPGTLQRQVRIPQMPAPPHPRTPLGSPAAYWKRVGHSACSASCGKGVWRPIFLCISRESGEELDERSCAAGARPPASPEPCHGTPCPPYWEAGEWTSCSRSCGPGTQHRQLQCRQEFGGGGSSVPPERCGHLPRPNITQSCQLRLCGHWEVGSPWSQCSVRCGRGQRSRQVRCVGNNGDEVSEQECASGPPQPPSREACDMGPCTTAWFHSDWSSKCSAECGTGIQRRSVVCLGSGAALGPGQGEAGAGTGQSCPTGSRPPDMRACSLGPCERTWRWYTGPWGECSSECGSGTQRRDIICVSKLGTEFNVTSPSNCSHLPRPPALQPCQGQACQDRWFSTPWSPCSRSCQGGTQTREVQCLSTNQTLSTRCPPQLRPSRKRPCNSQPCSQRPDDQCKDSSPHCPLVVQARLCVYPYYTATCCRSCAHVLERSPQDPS
B3: Zyxin (Homo sapiens), Q15942 (parent)
chain: MAAPRPSPAISVSVSAPAFYAPQKKFGPVVAPKPKVNPFRPGDSEPPPAPGAQRAQMGRVGEIPPPPPEDFPLPPPPLAGDGDDAEGALGGAFPPPPPPIEESFPPAPLEEEIFPSPPPPPEEEGGPEAPIPPPPQPREKVSSIDLEIDSLSSLLDDMTKNDPFKARVSSGYVPPPVATPFSSKSSTKPAAGGTAPLPPWKSPSSSQPLPQVPAPAQSQTQFHVQPQPQPKPQVQLHVQSQTQPVSLANTQPRGPPASSPAPAPKFSPVTPKFTPVASKFSPGAPGGSGSQPNQKLGHPEALSAGTGSPQPPSFTYAQQREKPRVQEKQHPVPPPAQNQNQVRSPGAPGPLTLKEVEELEQLTQQLMQDMEHPQRQNVAVNELCGRCHQPLARAQPAVRALGQLFHIACFTCHQCAQQLQGQQFYSLEGAPYCEGCYTDTLEKCNTCGEPITDRMLRATGKAYHPHCFTCVVCARPLEGTSFIVDQANRPHCVPDYHKQYAPRCSVCSEPIMPEPGRDETVRVVALDKNFHMKCYKCEDCGKPLSIEADDNGCFPLDGHVLCRKCHTARAQT
partner: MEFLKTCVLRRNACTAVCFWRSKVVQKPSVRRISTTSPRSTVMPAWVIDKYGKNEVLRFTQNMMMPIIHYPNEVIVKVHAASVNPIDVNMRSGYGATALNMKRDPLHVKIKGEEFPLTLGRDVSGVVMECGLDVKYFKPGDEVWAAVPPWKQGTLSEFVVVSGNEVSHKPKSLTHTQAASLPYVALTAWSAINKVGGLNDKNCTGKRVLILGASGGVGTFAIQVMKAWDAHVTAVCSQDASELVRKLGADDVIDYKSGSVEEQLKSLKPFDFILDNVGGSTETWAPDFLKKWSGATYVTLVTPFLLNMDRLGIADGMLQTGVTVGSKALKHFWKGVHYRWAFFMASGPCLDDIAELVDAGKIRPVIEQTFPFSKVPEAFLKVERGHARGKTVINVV
B4: Meiotic recombination protein DMC1/LIM15 homolog (Homo sapiens), Q14565 (parent)
chain: MKEDQVVAEEPGFQDEEESLFQDIDLLQKHGINVADIKKLKSVGICTIKGIQMTTRRALCNVKGLSEAKVDKIKEAANKLIEPGFLTAFEYSEKRKMVFHITTGSQEFDKLLGGGIESMAITEAFGEFRTGKTQLSHTLCVTAQLPGAGGYPGGKIIFIDTENTFRPDRLRDIADRFNVDHDAVLDNVLYARAYTSEHQMELLDYVAAKFHEEAGIFKLLIIDSIMALFRVDFSGRGELAERQQKLAQMLSRLQKISEEYNVAVFVTNQMTADPGATMTFQADPKKPIGGHILAHASTTRISLRKGRGELRIAKIYDSPEMPENEATFAITAGGIGDAKE
partner: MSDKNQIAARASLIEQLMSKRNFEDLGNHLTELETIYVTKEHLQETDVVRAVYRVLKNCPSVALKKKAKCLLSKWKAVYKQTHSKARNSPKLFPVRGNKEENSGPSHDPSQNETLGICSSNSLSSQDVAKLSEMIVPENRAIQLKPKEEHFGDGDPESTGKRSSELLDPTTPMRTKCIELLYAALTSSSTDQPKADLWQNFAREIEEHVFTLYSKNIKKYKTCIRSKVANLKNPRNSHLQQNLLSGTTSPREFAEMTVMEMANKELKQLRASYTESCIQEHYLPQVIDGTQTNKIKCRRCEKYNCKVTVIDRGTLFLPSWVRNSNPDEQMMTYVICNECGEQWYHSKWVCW
B5: Kelch-like protein 2 (Homo sapiens), O95198 (parent)
chain: METPPLPPACTKQGHQKPLDSKDDNTEKHCPVTVNPWHMKKAFKVMNELRSQNLLCDVTIVAEDMEISAHRVVLAACSPYFHAMFTGEMSESRAKRVRIKEVDGWTLRMLIDYVYTAEIQVTEENVQVLLPAAGLLQLQDVKKTCCEFLESQLHPVNCLGIRAFADMHACTDLLNKANTYAEQHFADVVLSEEFLNLGIEQVCSLISSDKLTISSEEKVFEAVIAWVNHDKDVRQEFMARLMEHVRLPLLPREYLVQRVEEEALVKNSSACKDYLIEAMKYHLLPTEQRILMKSVRTRLRTPMNLPKLMVVVGGQAPKAIRSVECYDFKEERWHQVAELPSRRCRAGMVYMAGLVFAVGGFNGSLRVRTVDSYDPVKDQWTSVANMRDRRSTLGAAVLNGLLYAVGGFDGSTGLSSVEAYNIKSNEWFHVAPMNTRRSSVGVGVVGGLLYAVGGYDGASRQCLSTVECYNATTNEWTYIAEMSTRRSGAGVGVLNNLLYAVGGHDGPLVRKSVEVYDPTTNAWRQVADMNMCRRNAGVCAVNGLLYVVGGDDGSCNLASVEYYNPTTDKWTVVSSCMSTGRSYAGVTVIDKPL
partner: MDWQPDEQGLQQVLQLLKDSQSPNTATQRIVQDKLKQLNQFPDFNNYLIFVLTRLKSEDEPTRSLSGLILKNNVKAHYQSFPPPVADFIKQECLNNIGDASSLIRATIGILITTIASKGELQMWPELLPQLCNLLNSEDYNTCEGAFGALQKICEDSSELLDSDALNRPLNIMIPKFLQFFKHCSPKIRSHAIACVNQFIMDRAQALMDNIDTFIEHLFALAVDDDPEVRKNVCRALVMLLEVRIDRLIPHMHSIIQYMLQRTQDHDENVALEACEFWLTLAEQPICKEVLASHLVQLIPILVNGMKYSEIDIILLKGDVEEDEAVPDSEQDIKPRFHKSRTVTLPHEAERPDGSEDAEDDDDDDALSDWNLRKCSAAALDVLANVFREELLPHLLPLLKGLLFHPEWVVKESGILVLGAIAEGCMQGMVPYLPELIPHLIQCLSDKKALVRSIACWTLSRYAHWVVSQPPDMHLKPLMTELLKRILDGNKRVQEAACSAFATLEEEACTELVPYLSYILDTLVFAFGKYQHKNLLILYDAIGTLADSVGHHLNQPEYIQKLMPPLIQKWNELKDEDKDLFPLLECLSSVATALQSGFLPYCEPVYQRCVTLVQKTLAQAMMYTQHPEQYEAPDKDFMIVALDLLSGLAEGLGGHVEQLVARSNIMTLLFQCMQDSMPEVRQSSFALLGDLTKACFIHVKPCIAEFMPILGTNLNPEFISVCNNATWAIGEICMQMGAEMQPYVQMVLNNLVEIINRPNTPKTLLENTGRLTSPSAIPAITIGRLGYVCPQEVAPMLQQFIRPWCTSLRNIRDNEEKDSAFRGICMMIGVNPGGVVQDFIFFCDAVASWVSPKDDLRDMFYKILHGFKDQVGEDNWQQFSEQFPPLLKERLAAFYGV

The variants in one experiment derive from B1. Particulars: with tekt4_human TEKT4, Q8WW24.
In the case of K58M, the “effect of a mutation on the interaction” value is “with no effect”.

Variants of B2 are the subject of a further experiment. Particulars: with atl4_human ADAMTSL4, Q6UY14.
As to R267W, the “effect of a mutation on the interaction” value is reported as “disrupting interaction strength”.

A further experiment covers variants of B3. Conditions: with rt4i1_human RTN4IP1, Q8WWV3.
For R563Q, the “effect of a mutation on the interaction” value is “with no effect”.

For R489W, the “effect of a mutation on the interaction” value is reported as “with no effect”.

The variants in a further experiment derive from B4. Conditions: with teanc_human TCEANC.
I288T: the “effect of a mutation on the interaction” value is given as “with no effect”.

The next experiment covers variants of B5. Conditions: with tnpo2_human TNPO2, O14787.
In the case of A480T, the “effect of a mutation on the interaction” value is “with no effect”.

For the origin of these results see IntAct's records for PubMed 31515488.
